Molecular target: GOLD domain of human TMED1 (p24γ1), signal peptide-free (human) (UniProt Q13445)
Assay: SEC

stoichiometry N: 2
Substance: GOLD domain of human TMED1 (p24γ1), signal peptide-free (from UniProt Q13445 24-130) (domain or fragment)

— article doi:10.1101/2021.02.13.431076
